The assay deals with WT ACE2(740)-Fc (human, UniProt Q9BYF1 18-740). Nature of the assay: BLI.

B1: HCoV-NL63 spike RBD (domain or fragment)
chain: QHTDINFTATASFGGSCYVCKPHQVNISLNGNTSVCVRTSHFSIRYIYNRVKSGSPGDSSWHIYLKSGTCPFSFSKLNNFQKFKTICFSTVEVPGSCNFPLEATWHYTSYTIVGALYVTWSEGNSITGVPYPVSGI
For B1, the Kd turned out to be 22 nM.

The record behind these values is publication PMC7668070 (2020).
